{
  "source": "patent US20250277199",
  "about": "“NOVEL CRISPR-CAS NUCLEASES FROM METAGENOMES” (Brain Biotech AG, published 2025)",
  "binders": {"B1": {"name": "malQ gRNA (BMC stem-loop + 24 nt spacer) ; malQ protospacer (ssRNA ; dsDNA)", "RNA": "GAUUUCUACUAUUGUAGAUGUGGCGGUACGUUGAUGCAUCGCG", "DNA 1": "GTGGCGGTACGTTGATGCATCGCG", "DNA 2": "CGCGATGCATCAACGTACCGCCAC"}},
  "molecular_target": "T1, BMC04 (uncultured bacterium (metagenome))",
  "T1 chain": "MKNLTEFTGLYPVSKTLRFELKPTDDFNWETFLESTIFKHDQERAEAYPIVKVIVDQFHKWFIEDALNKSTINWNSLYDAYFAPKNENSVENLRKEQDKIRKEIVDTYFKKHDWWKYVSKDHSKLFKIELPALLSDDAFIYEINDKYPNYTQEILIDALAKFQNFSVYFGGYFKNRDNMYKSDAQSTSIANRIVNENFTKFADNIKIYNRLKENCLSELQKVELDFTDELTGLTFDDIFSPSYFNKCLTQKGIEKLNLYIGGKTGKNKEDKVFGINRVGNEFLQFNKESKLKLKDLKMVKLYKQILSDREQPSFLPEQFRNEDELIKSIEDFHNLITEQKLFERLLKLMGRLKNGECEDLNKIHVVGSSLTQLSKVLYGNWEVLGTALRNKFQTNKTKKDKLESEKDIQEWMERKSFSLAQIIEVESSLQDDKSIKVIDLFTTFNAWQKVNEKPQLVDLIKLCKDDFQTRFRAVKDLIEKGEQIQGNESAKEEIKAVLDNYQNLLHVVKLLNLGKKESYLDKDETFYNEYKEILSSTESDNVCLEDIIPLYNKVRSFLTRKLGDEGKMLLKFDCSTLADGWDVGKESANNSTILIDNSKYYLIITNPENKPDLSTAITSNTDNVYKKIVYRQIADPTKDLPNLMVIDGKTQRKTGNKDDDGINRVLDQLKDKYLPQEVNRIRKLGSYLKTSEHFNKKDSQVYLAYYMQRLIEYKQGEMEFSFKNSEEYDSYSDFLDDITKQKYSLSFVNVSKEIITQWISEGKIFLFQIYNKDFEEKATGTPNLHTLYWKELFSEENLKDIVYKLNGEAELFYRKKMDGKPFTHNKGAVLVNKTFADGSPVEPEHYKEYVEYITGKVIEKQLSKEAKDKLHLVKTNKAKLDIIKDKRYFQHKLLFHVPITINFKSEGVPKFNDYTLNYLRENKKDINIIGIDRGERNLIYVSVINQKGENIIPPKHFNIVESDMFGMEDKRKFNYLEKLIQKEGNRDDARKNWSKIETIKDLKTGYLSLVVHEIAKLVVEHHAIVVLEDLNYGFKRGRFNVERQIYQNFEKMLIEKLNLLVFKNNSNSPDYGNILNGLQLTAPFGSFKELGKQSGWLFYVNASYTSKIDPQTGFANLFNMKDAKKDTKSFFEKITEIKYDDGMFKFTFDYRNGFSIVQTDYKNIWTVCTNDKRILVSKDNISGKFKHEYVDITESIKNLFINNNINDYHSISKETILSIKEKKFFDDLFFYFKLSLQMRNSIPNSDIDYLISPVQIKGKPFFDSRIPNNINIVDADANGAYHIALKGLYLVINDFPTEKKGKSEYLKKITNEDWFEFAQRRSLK",
  "experiment": "cell_activity; PAM not stated; E. coli depletion, 30 C",
  "procedure": "Overnight grown pre-cultures were diluted into fresh 60 ml LB-Kanamycin (25 μg/ml) (Example 4) or LB-Kanamycin (25μg/ml)/Nourseothricin (50 μg/ml) medium (Example 5) to obtain an optical density at 600 nm (OD600) of 0.06. The inoculated medium was incubated at 30° C. on a horizontal shaker at 250 rpm until the culture reached an optical density at OD600 of 0.2. For induced BMC (NN) nuclease expression, 600 μl 20% L-(+)-arabinose (w/v) was added to the culture at a final concentration of 0.2% (v/v). The cultivation was continued until the culture reached an optical density at OD600 of 0.5. Subsequently 50 ml culture was transferred into one 50 ml conical tube and harvested by centrifugation at 4° C. for 5 min and 4000×g. Pelleted cells were resuspended in 50 ml ultrapure water (ice-cold) and centrifuged at 4° C. for 5 min and 4000×g.\nThis washing procedure was repeated twice. Washed cells were resuspended in 25 ml 10% (w/w) glycerin and re-centrifuged at 4° C. for 5 min and 4000×g. The pelleted cells were resuspended in 5 ml 10% (w/w) glycerin. After the final centrifugation step at 4° C. for 5 min and 4000×g, the cells were resuspended in 125 μl 10% (w/w) glycerin. Aliquots of 25 μl competent cells were stored at −80° C. until use. For the transformation procedure, aliquots of competent cells were thawed on ice and 50-100 ng plasmid DNA (CRISPR/gRNA-Ec) was added. Prepared cells were electroporated at 1800 V, 25 μF and 200 Ω in 1 mm gap size electroporation cuvettes, using the Bio-Rad Gene Pulser Xcell Electroporation System. Subsequently, 975 μL of NEB® 10-beta/Stable Outgrowth Medium was added immediately after the pulse to the transformed cells. Regeneration was done at 30° C. on a horizontal shaker at 250 rpm. Finally, 25-100 μl of the cell suspension was plated onto selective M9-Glucose agar plates supplemented with Kanamycin (25 μg/ml)/Ampicillin (100 μg/ml) (Example 4) or Kanamycin (25 μg/ml)/Ampicillin (100 μg/ml)/Nourseothrin (50 μg/ml) (Example 5). Growth of transformed E. coli cells on selective agar plates was screened for 48 h at 30° C.\nAs described above, each of the BMC01, BMC02, BMC03, BMC04, BMC05, BMC07, BMC08, BMC09, BMC10, BMC11, BMC12, BMC13, BMC14, or BMC15 nucleases was co-transformed into E. coli with a gRNA targeting the E. coli malQ gene to visualize a) the activity and b) the DNA targeting efficiency of the BMC nucleases.",
  "data": [
    {"binder": "B1", "values": [
      {"measurement": "activity", "result": "> 99.9", "unit": "% colony reduction"}
    ]}
  ]
}
